Measured values taken from the domain aggregation screens of Martell et al. (2025).

Test: soluble fraction after stress (log2 fold change); higher = more stays soluble; pooled small domains, quantitative proteomics
Conditions: stress: 50 degC
In short: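 Quantitative proteomics served as the high-throughput read-out for pooled custom libraries of small protein domains. Each was stressed at 50°C. Aggregation propensity is expressed as the base-two log fold change in soluble protein after stress. A higher value means a larger share of the protein remains in solution.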

Row | Sequence | soluble fraction (log2)
1 | HMVDSLTIGRRIRQLRTERGMTLEELAAAVGRAPSQLSMIENGRREPKLTLLQAIARALGSTLDALLE | -0.116
2 | HMIRMPNLIGLSVRSAEQQLVIAGLKKGIVHQVNDPRLKEVIDMQALGHKITAGSSIPKGTEVDLYIGNGT | 0.146
3 | HMIDLSELINKTGSAYTNLRPSGTAVIGDDRVDVVTEGTFVEKDRPVKVVAVEGQRVVVREVE | 0.178
4 | HMSSPRAIYSAIQKAVGEDMILYREDVQIILDKLDADLLVDDILEKMELDGTLVRQRDGTWLLL | -0.658
5 | HMVQPSAAVRAHPVGAFVEQRQGLSDDQILALQKKWNEGIYARIQGTRWFLFSKDTPAVTSLLLVPDLP | -0.555
6 | HMTTHEQVAILRRELNGLVGAWHHRTGQAHGVTHSKLRKELGGPPAAVASAAQLSARIEKIRQWAT | -0.635
7 | HMAPDYYALLGVPRNATTAEVRKAFRGKALEQHPDRGGDEESFRLLSKAYDVLSDSERRKYYDRTG | 0.0767
8 | HMSSDKVWSFEASGKQLQASYVAFENETVYLRASEDGSLLQFPLTDFGMKDQLVVLELYELSAKINRSN | -0.49
9 | HMGDEHYDTISAFIKSVRGSDPDAALYWLAKMILAGEDPRFILRRLIVLSGEDIGLADPQGI | -0.653
10 | HMRYQIAEARKLRDITQAELAEKMGTTQQTIQRYETNQVNIRMDKMIEMSEILNVSLAYLLGMSSSPEL | -0.901
11 | HMSDYLGSLSHEEKMIFNHFDEDSSTIENMAKKTELKPELISQIFLNLELRGFLRQTEGGLYEKI | -0.000348
12 | HMRGDEDTGVWPTPMKRAYIDSLLKGYPTGVTMIVKPPGASHTTKWMILDGANRARALRDFMNDEFMI | -0.163
13 | HMVSIGSQVAKRRRELRLTQQNLAEKMGVSFQAISSWEREEFLPDINKLQKLAAILNTKISYLLEE | -1.3
14 | HMHESLAEVAARKLRALIVTGELAPGERVTEAGLTDLLEISRTPAREAIRILSSEGLLVVFPNRGAEVV | -0.822
15 | HMLTRYNVNYYYNGEILQRRKVAEGSAAERITYLSGSLEVTDWYTEADLLRKYDFTEPVTGDLNLYAFARI | -1.05
16 | HMSTTYAPYLLGETEQEAIRMARNAGLDPQVVRQSDKSEAGTVILQSHDFGFAMKRGAVILITVSSGPLQ | -1.44
17 | HMVEELDVQFIKLTVQGDHPWKNKKIRELSIPWDLLFVLIIRGDKSIIPNGKTTIKDGDIVVVSAPEYRG | -0.676
18 | HMYMKTITEQFGERLKKIRTQKSLSQEQLSYLADIDRSYISDVERGARNISLENIYKLASALNIPPYLVLL | -0.273
19 | HMKLPIEKESYRIIWDLEEESFRIRLKISENSPQEEKNILINQAIEDIENITGEPIDKSPYYVLYE | 0.0672
20 | HMSNEYLMPNLIGMSWDEAKSKYSQYMTLVPEQEWSEVTKDQIFDQEYPEGRKVKIGTEVTVKVSMGI | -0.192
21 | HMKRREENLRRLALSTAERVKRKGKKEILNPMSPQERRIIHLTLQNNKEVVTHSEGEDPYRRVIISPRN | 0.00802
22 | HMKFLYQKAREEIISLIQDGEIKPSEKIMPERELSELLGYNRMTIKKAINSLVAEGVLMKKRGAGTFLLG | -0.387
23 | HMNEYSLVPDIYGMTYDDALSSLRNVGLDGRLALASTNEDLANADTRVVWQSKEAGSIIDKGSNVMFVID | 0.0609
24 | HMTVVIKVQASQLESWKSSAGTEIKAKLIAVEDEKTYLFVTETGKTIRATAAQLDESSVSRARKLAGL | -1.03
25 | HMLSTGIIIGDNVALRKTASSNGGIITRLDEGTVVKILASNVNAEWYQVEAGTKTGYVNRLYVNID | -0.293

Row | Sequence | soluble fraction (log2)
26 | HMSVAVKAPLQGTVMKVNVKPGDTVTKGAPVAVIEALKMENDVPAPQDGVVASVDVKSGDSVKTDQVLLTL | 0.182
27 | HMSTKLLEVNIFDDSKWVNKTIMDSDIPEDILIVMIKRGDEVIVPKGSTIINKGDILVLSANNFDNLLN | -1.63
28 | HMGASVGEVESVKTASEIYTAAAGKIVAVNDAVAKDPSLVNSDPYGNGWLVKLEIADLSAINA | 0.000115
29 | HMDFEEGAVKWFNTKKGYGFITRDQGDDIFVHFRNIKAQSRRSLTDGERVTFVVTEGDKGLQADHVSPV | -0.31
30 | HMDSDFIKIEVLFNERNRLDLKAMMEASGFTDRGQFLSIMADLTGDENWDRNLDRGDIFYLPRSFTI | -1.22
31 | HMFDDLSTNLRDLAHNYIEKYSPSKQQLKVFLLKKYLMKFKGSKTKKEISEIIDKIISNLEENKYLNDEL | 0.0632
32 | HMSDFSNLNLLELNSSELDLLLRRASSQGLTQMDLLKMARSQGLSEADLIKVKGKIDTSESIKR | -0.0148
33 | HMTATDRQLQLIAYTAARLMAEQGIADFNAAKRKAIQTLGLPNNAKLPGNADVEAQLRAYQRIF | -0.133
34 | HMIVKQPDIRKQELLDIGVRLYFEAGEKGVSIQQVVKQAGVATGLFYYYFSSKDAFLDEALNDYID | 0.102
35 | HMNKSEFLNELEKRIRVLEKNEIKDILAEYSQHIDMRMGSGLSEAEAIKDFGDMDDLAAEILEAY | 0.08
36 | HMSSTSTMTVAEATIGRKVKHDKFGEGTIITVADVNGDKKLTIAFNQQGVKMLMLSMAKLEL | -1.03
37 | HMKEPIYQTILSALILELNTNHFRKNDPFYSESELRKKYQVSSTTVVRVLNMLADQGYIYRIQGKGSFVSK | -2.37
38 | HMEYSKSIKRLREDKNLTVEELAKRLSLDVEEIQKAEDGEDVDQKTLEAIARYFGVQYDSLVEGTAKSK | 0.0998
39 | HMASSRPLAEGDFVRLRAGGATGRIESIKGQKATVQMGGLKVHAPLRDLLPVAEPIKQVSTASNT | 0.0407
40 | HMGEGTAVGKALKFLAAQGKKFAPELLDMAGSLTGVEALSKLGDAIKGDPELSELDKRILLAELETDAV | -0.0713
41 | HMENITTILRSIKNEIKKNSTFVGDDFVNQARSMNQGQIKEKSIYGHGTKKEIEELRDEGVDVLNIPWIT | -0.162
42 | HMSTDNINYKNILIASLLIHAAKIDENYTENEKNIIKKALIELDEIDSKKADEIMILAEKKE | -0.221
43 | HMNIGEKIKKIRTQQNKSTYELADIINKNGFKISQSAISKIENGRKKIDIETLEEIAKALDIEVDLLIT | -0.14
44 | HMLSDHGLNDRQIMVIAGLMNGGTVTVRSIESQYGVSLNTARADVKMLVDAGLLTETGREVNMKVYSWSGK | -2
45 | HMDSDELEAFRLITSVNGVGPKLGIAILSEFTAEKLTVFIASGDAKALTAASGVGIKLAQRIVLELKDKVG | -0.199
46 | HMSQLVTGVLRNLNDISEKIAAGKAVPEMLGRLENMQQMIANLKGNEGLIKSISILTRSAQDALR | 0.00825
47 | HMKPLAQQVNDYLAATRTSIATLANEIPGYSRPTISRYLAGKYDGDITTIEKLLAEWLAQRTG | -0.354
48 | HMSVPEDLYFRELEVEGNKVRISGIASTNNRVSALMRNFDQSEWFRDPSLIKVESKSPGVNEFEIVMTRI | 0.0509
49 | HMAAQDIILKRNAEQIEAIVKEITDTDVKYRKFTNTEGVTYSIRRSEVFSITYENGTMDLFA | 0.0231
50 | HMSVGDLPPEAREIWKLLDGRELSLDLLAEETGRETGALLSTLMMLEMKLLVEHGSDMVYRRIPRR | -1.78

Row | Sequence | soluble fraction (log2)
51 | HMNSLQNNLKQARTRVGLTQGVLASQAGISRQAYSTLESGSANPSTEVALRLAQALQERVELLFYLPER | -0.705
52 | HMWAQSVSLHGLLGRQALLIVDGKPPRAVAPGQTHLGVTVLSTDEDRAVVALAGGQRLTLRVGESPVSVG | -0.0812
53 | HMAVSSHAVKQRIRSLIQAEDPAAPLSDEALRLALSALGVDVSRRVIAKYRAELNIPSSSQRKK | 0.045
54 | HMAQLPADMSRVKSADVSDAQLREFVQKAQASGQTETQLFREFSRRGMPTNEINILRSRMVGLQNN | 0.0388
55 | HMAADRRKAERPLIDGQAVMDRFEVGPGPMVGKALKFLLALKRAEPDLDLAGTEERLDAWWNEQL | 0.262
56 | HMFMSKTAMVAIISEADKYGLFNIPEGLSVEKTADEIFEGHIEVDFDKLKNELDFVYKNEALEKQFQEN | -0.534
57 | HMHAPIAELKKVFKEEFADQEVTVRQLAGSVLLSGNVKTAELRENLESVAKQFFPRVINNLKLI | -0.000214
58 | HMKTFSTRLIALREAIGVNQSELARRVGVTPQAVQKWESGANGPRGKRLEKLASELRSTVGYLVSGEGDG | -0.446
59 | HMPLDPFVVDALRDEIINTIKQHEPRVDLQKVQVQPIYTQNRVNISVQYKIVGLPIVEDITFVLQRP | -0.0764
60 | HMVNPDAPAPLYIVNGKETDKNIALAIKPEDVQDVRIIKNTVALQVYGEKGKNGVVIINTKPGV | 0.206
61 | HMDAQEAAWARKMMETLPEKQKLSVALRIEEGLSFKEIGEIIGSSEGAARVNYFHGIRRLRELL | -0.688
62 | HMSYYKEMIRLADSIADKAHEGQTDRNGWPYISHPRRVALGARKLVSEMASSTSPDTSLEELKAEVQIVAL | -0.288
63 | HMQARLPFSFAKRHGVILLAATGEGQSDVIYKSGFDIGALAEVRRFVAGEIALKEVDGPSFDRQLTLTYQN | -1.77
64 | HMNVPLYIMIESAVEQRLLDGTYQVGKMIPTEFELMDEFSVSRETVRKAINLLVQRGKLEKKRGIGTFVAS | -2.92
65 | HMNKYNNIEDLKEEDFENISEKYQVPVSFVKSKLDDLINWHEKNPQKNHYKNYLSALRDWVKRDSLKIKL | 0.0328
66 | HMSTANISIEQAKEIALNHANLTSNQVIFSRTELDYDNGIQKYEVEFYYNNREYSYEINANTGDILGYEQ | -0.148
67 | HMNFTMERLYTKELTSEDIDEIKKELNSMGYTEGVEFNIIKGDKTSFIMAERQLKAKMLSHLSDLGLPRGA | -0.152
68 | HMENQGEDMRQQVKALVNADKTNITKLATATGYSRSTISMYLAGNYKGDVEAVERRLEEYMKTQG | -0.0136
69 | HMHSFGLHVRNLRKKSNLTLSQLSNASGLSLSAISKIENNQISPSFINLIRLAEGLKMHIADLVTVK | -2.13
70 | HMGDWEKALAQFAAHRLANGSTAFLDEMYPIFERILLQAALNKTGGRKIEAAELLGWGRNTLTRKLKELGF | -2.2
71 | HMELSAEGWVDGTGVRMRASASTDSEVVRVTEDGESLDITGVSGTWYRVTAGGVSGYIRSDYVSLEEP | -0.287
72 | HMASAAHYEGVKTEGESDNDVITRVLTATGVTAEKDDIFVVKSLIADGKYSYTAYVYDGSVWAAMD | -0.0797
73 | HMSTVTEVHYIAFKNGRIVDIKAALTGSAVTATSIKEQPKIENYNYTTSEVRDGILYHTYAPVA | -1.32
74 | HMAMDVKEVLLPGVGLRYEFDNSDGDRIGVIAKRSGDFEVVRYTAADRDAAQPMFRLTDEEADALAQILGA | 0.0786
75 | HMGTAVKAPMPGTILKVNVTAGQSVKAGDIMFILEAMKMENEIVAPSDGTVSQVVAAKGSSVATDDVLAYL | -0.0338
